The source of these data is article PMC7857409 (Science (New York, N.y.), 2020).

The target in the test is SARS-CoV-2 Spike receptor binding domain (RBD) (SARS-CoV-2, ancestral (Wuhan-Hu-1) …, UniProt P0DTC2). Put plainly: SPR. The following applies: both partners purified.

B1: nanobody Nb6 (class I synthetic nanobody) (VHH)
VHH: QVQLVESGGGLVQAGGSLRLSCAASGIIFGRNAMGWYRQAPGKERELVAGITRRGSITYYADSVKGRFTISRDNAKNTVYLQMNSLKPEDTAVYYCAADPASPAPGDYWGQGTQVTVSS
By Kd is commonly meant the equilibrium constant for the complex coming apart. High values mean weaker binding, low ones tighter binding. For B1, the Kd amounted to 41 nM.
